Measurements reported in PMC12548415 (Journal of Virology, 2025).

Target: T1, raccoon dog transferrin receptor ectodomain (recombinant RDTfR, from residue 121, C-terminal 6x His) (raccoon dog)
T1 construct: transferrin receptor type 1 of the raccoon dog, ectodomain starting at amino acid residue 121 of XM_055316305; Cloned with the N-terminal signal peptide GP67; also called recombinant RDTfR protein; purified RDTfR; source: Sf9 cells (pFastBacI-RDTfR), purified (Ni-NTA, dialysed in PBS); not shown: His6, C-terminal, kept
Assay: BLI; virus immobilised on APS probe (Gator Prime), PBS as running buffer; three concentrations (serial dilutions) of RDTfR in PBST (PBS, 0.05% Tween-20) applied; global fit, 1:1 binding model
Conditions: both partners purified

B1: rRDPV-10 virus (rescued from the infectious cDNA clone pRDPV-10 of raccoon dog parvovirus strain RDPV/FLD/2010), capsid of VP2 (complex)
chain: MSDGAVQPDGGQPAVRNERATGSGNGSGGGGGGGSGGVGISTGTFNNQTEFKFLENGWVEITANSSRLVHLNMPESENYRRVVVNNMDKTAVNGNMALDDIHAQIVTPWSLVDANAWGVWFNPGDWQLIVNTMSELHLVSFEQEIFNVVLKTVSESATQPPTKVYNNDLTASLMVALDSNNTMPFTPAAMRSETLGFYPWKPTIPTPWRYYFQWDRTLIPSHTGTSGTPTNIYHGTDPDDVQFYTIENSVPVHLLRTGDEFATGTFFFDCKPCRLTHTWQTNRALGLPPFLNSLPQSEGATNFGDIGVQQDKRRGVTQMGNTNYITEATIMRPAEVGYSAPYYSFEASTQGPFKTPIAAGRGGAQTDENQAADGNPRYAFGRQHGQKTTTTGETPERFTYIAHQDTGRYPEGDWIQNINFNLPVTNDNVLLPTDPIGGKTGINYTNIFNTYGPLTALNNVPPVYPNGQIWDKEFDTDLKPRLHVNAPFVCQNNCPGQLFVKVAPNLTNEYDPDASANMSRIVTYSDFWWKGKLVFKAKLRASHTWNPIQQMSINVDNQFNYVPSNIGGMKIVYEKSQLAPRKLY
Q: Which Kd does the source give for B1 here?
A: The Kd was 137 nM.

Q: And the koff?
A: Its koff is 0.0071 s⁻¹.

Q: What about the kon of the same binder?
A: The kon was 51800 M⁻¹ s⁻¹.
